According to US11884743B2, “Preparation and application of an intact recombinant antibody specific to clothianidin based on the identified variable region sequence” (Zhejiang University, priority 2020, dated 2024):

Key:
[1] = heterologous competitive indirect ELISA (coating antigen imidaclothiz-OVA); assay type: binding
Excerpt: In the early preparation stage of parental ascitic monoclonal antibodies, the assay sensitivity difference was compared between the homologous competitive indirect ELISA (coating antigen was clothianidin-OVA) and the heterologous competitive indirect ELISA (coating antigen was imidaclothiz-OVA). […] Therefore, in the present disclosure, the heterologous competitive indirect ELISA was used to evaluate the sensitivity and specificity of the intact recombinant antibody against clothianidin. A 96-well plate was coated with imidaclothiz-OVA as the heterologous competitive antigen; subsequently, ELISA was performed using a rabbit anti-mouse IgG-HRP as a detection antibody, tetramethylbenzidine (TMB) as a reaction substrate, and clothianidin and other neonicotinoid pesticide standards as analytes.

[2] = antibody binding kinetics by surface plasmon resonance (SPR); conditions: CM7 chip, antibody coupled at pH 5.0, clothianidin 0.78-50 nM
Experimental: The CM7 chip was used in this invention, and the optimal pH for both antibodies was 5.0. The final signal values of the antibodies coupled on the chip were 38663 RU and 39854 RU, respectively. Kinetic experiments were performed to determine the affinity of both the parental ascitic monoclonal antibody and the intact recombinant antibody to clothianidin at a range of analyte concentrations ([…], and 0.78 nM).

B1: intact recombinant antibody against clothianidin: Recombinant mouse IgG1/kappa antibody, VH SEQ ID NO: 2, VL SEQ ID NO: 4, expressed in HEK293F cells (antibody, listed as Mus musculus, V domains shown)
VH: EVQLQQSGPELVKPGASVKMSCKASGYTFTNYVMHWVKQKPGQGLEWIGFFYPYIDYTKYNEMFKGKATLTSDTSSSTAYMELSGLTSEDSAVYFCARSQFFYRYDYFDYWGQGTALTVSS
VL: DVLMTQTPLSLPVSLGDQASISCRSSQNIVHSNGNTYLEWYLQKPGQSPKVLIYKVSNRFSGVPDRFSGSGSGTDFTLKINRVEAEDLGIYYCFQGSHVPFTFGSGTKLEIK
Sensitivity (IC50) [1]: 4.62 ng/mL | detection range for ELISA (IC20-IC80) [1]: 0.92 to 23.04 ng/mL | Kd [2]: 3.24 nM
